{"source": "the RNAGym collection of RNA variant scans (doi:10.7554/elife.80360)", "parents": {"B1": {"name": "HDV Ribozyme (parent)", "chain": "GGCCGGCAUGGUCCCAGCCUCCUCGCUGGCGCCGGCUGGGCAACAUUCCGAGGGGACCGUCCCCUCGGUAAUGGCGAAUGGGACCCA"}}}
{"variants_of": "B1", "test": "self-cleavage, relative activity (ratio to wild type); higher = more cleavage; co-transcriptional"}
{"variant": "G39A G59A", "self-cleavage": 0.426}
{"variant": "G38C C84A", "self-cleavage": 0.18}
{"variant": "G38U G54A", "self-cleavage": 0.227}
{"variant": "G38U G54U", "self-cleavage": 0.325}
{"variant": "G39A C62U", "self-cleavage": 0.508}
{"variant": "G39A A43C", "self-cleavage": 0.185}
{"variant": "G39A A43G", "self-cleavage": 0.0707}
{"variant": "G39A C58A", "self-cleavage": 0.475}
{"variant": "G39A C58U", "self-cleavage": 0.443}
{"variant": "G38C G53U", "self-cleavage": 0.266}
{"variant": "G39A", "self-cleavage": 0.51}
{"variant": "G39A C44U", "self-cleavage": 0.185}
{"variant": "G39A C48A", "self-cleavage": 0.609}
{"variant": "G39A C48G", "self-cleavage": 0.507}
{"variant": "G39A C48U", "self-cleavage": 0.504}
{"variant": "G38C G59A", "self-cleavage": 0.199}
{"variant": "G38C G59U", "self-cleavage": 0.233}
{"variant": "G38U U47A", "self-cleavage": 0.109}
{"variant": "G38U C57A", "self-cleavage": 0.323}
{"variant": "G38U C57G", "self-cleavage": 0.38}
{"variant": "G38U C57U", "self-cleavage": 0.126}
{"variant": "G38U A78G", "self-cleavage": 0.203}
{"variant": "G39A A56G", "self-cleavage": 0.509}
{"variant": "G38C C86A", "self-cleavage": 0.136}
{"variant": "G38C C86U", "self-cleavage": 0.145}
{"variant": "G38U C75G", "self-cleavage": 0.0707}
{"variant": "G38U C75U", "self-cleavage": 0.163}
{"variant": "G38C G55A", "self-cleavage": 0.124}
{"variant": "G38C G55C", "self-cleavage": 0.46}
{"variant": "G38C G73U", "self-cleavage": 0.13}
{"variant": "G38U G68U", "self-cleavage": 0.119}
{"variant": "G38U U79A", "self-cleavage": 0}
{"variant": "G38U U79C", "self-cleavage": 0.112}
{"variant": "G38U U79G", "self-cleavage": 0.208}
{"variant": "G39A C86U", "self-cleavage": 0.513}
{"variant": "G39A C86G", "self-cleavage": 0.534}
{"variant": "G39A C85G", "self-cleavage": 0.523}
{"variant": "G38U A70C", "self-cleavage": 0.158}
{"variant": "G38U A70G", "self-cleavage": 0.227}
{"variant": "G38U C48U", "self-cleavage": 0.141}
{"variant": "G38U C48A", "self-cleavage": 0.0978}
{"variant": "G38U C64G", "self-cleavage": 0.177}
{"variant": "G38U C64U", "self-cleavage": 0.25}
{"variant": "G38U C64A", "self-cleavage": 0.257}
{"variant": "G38U C61U", "self-cleavage": 0.174}
{"variant": "G39A C41A", "self-cleavage": 0.471}
{"variant": "G39A C41G", "self-cleavage": 0.228}
{"variant": "G39A C41U", "self-cleavage": 0.793}
{"variant": "G39A G55C", "self-cleavage": 0.443}
{"variant": "G38U U72G", "self-cleavage": 0.145}
{"variant": "G38U U72C", "self-cleavage": 0.0978}
{"variant": "G38U A77G", "self-cleavage": 0.0923}
{"variant": "G38C G81A", "self-cleavage": 0}
{"variant": "G38U G80U", "self-cleavage": 0.0802}
{"variant": "G38U G80A", "self-cleavage": 0.102}
{"variant": "G38U G80C", "self-cleavage": 0.108}
{"variant": "G39A A78C", "self-cleavage": 0.0563}
{"variant": "G39A A78U", "self-cleavage": 0.201}
{"variant": "G39A A78G", "self-cleavage": 0.131}
{"variant": "G38U C84U", "self-cleavage": 0.0821}
{"variant": "G38U G52A", "self-cleavage": 0.305}
{"variant": "G38U A42U", "self-cleavage": 0.261}
{"variant": "G38U A42G", "self-cleavage": 0}
{"variant": "G38U C49G", "self-cleavage": 0.0739}
{"variant": "G38U C49A", "self-cleavage": 0.264}
{"variant": "G38U U46C", "self-cleavage": 0.135}
{"variant": "G38U U46G", "self-cleavage": 0.0755}
{"variant": "G39A A71C", "self-cleavage": 0.332}
{"variant": "G39A A71G", "self-cleavage": 0.332}
{"variant": "G38U C86U", "self-cleavage": 0.241}
{"variant": "G38U C85G", "self-cleavage": 0.295}
{"variant": "G38C G68A", "self-cleavage": 0.172}
{"variant": "G38C G68U", "self-cleavage": 0.272}
{"variant": "G38C G68C", "self-cleavage": 0.193}
{"variant": "G38C G82A", "self-cleavage": 0.0594}
{"variant": "G38U", "self-cleavage": 0.255}
{"variant": "G38C U65A", "self-cleavage": 0.341}
{"variant": "G38U G81U", "self-cleavage": 0.0545}
{"variant": "G39A A45C", "self-cleavage": 0.188}
{"variant": "G38C G52U", "self-cleavage": 0.249}
{"variant": "G38C G52C", "self-cleavage": 0}
{"variant": "G38U C66U", "self-cleavage": 0.175}
{"variant": "G38U G39A", "self-cleavage": 0.0415}
